Test results reported in PMC2134809.

Target: profilin (Acanthamoeba)
Assay: affinity chromatography

Sequence of Arp2/3 complex (P53487 whole entry, looked up, one chain of several): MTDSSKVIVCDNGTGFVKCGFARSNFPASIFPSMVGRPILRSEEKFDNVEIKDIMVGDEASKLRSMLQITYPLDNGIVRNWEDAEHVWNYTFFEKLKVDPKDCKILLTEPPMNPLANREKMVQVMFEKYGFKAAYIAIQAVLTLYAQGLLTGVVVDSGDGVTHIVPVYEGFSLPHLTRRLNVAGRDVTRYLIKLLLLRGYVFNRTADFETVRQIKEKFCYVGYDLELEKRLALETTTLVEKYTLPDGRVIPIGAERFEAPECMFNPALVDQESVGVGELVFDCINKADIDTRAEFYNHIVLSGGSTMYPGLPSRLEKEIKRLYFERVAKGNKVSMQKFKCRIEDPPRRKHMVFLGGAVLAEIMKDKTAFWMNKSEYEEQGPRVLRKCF

- percent of the complex bound to the column that holds profilin: 10%
Substance: Arp2/3 complex (from UniProt P53487 1-388)
